# Measured values taken from patent publication US20140087995A1 (published 2014).
# Numbered stars: 1 amine (or outer) side, 2 acyl side, 3 side chain; on linkers, the order of the positions; unused ones are H or OH. Bridge positions count the residues as written; N and C are the ends. Side chains are listed from the residue outwards. Ends that are not written are not given here. * marks the point of attachment. C20 diacid = O=C(O)CCCCCCCCCCCCCCCCCCC(=O)*; γGlu = O=C(O)[C@H](CCC(=O)[*:2])N[*:1]; AEEA = NCCOCCOCC(=O)O
# T1: human calcitonin receptor (human, UniProt P30988 25-474)
# T1 construct: whole, on cells; Membranes of a BHK tk'ts 13 cell line stably transfected with the human calcitonin receptor; also called hCTR; hCT
# T1 sequence (looked up): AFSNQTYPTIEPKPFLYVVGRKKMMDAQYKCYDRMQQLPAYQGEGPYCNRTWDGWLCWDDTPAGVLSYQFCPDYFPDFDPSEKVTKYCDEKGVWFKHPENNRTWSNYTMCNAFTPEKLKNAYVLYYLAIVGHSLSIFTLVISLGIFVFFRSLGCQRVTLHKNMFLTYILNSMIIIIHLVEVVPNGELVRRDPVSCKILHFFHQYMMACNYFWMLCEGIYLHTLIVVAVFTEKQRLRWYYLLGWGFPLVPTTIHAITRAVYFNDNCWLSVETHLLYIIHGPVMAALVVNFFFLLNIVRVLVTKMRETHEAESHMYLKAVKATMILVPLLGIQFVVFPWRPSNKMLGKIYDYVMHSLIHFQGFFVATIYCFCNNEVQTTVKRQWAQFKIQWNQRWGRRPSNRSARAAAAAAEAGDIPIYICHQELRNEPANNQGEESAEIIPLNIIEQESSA
# T2: rat calcitonin receptor (rat, UniProt P32214 25-516)
# T2 construct: whole, on cells; Membranes of BHK tk'ts 13 cells transiently transfected with the rat calcitonin receptor; also called rCTR; rat calcitonin (a) receptor
# T2 sequence (looked up): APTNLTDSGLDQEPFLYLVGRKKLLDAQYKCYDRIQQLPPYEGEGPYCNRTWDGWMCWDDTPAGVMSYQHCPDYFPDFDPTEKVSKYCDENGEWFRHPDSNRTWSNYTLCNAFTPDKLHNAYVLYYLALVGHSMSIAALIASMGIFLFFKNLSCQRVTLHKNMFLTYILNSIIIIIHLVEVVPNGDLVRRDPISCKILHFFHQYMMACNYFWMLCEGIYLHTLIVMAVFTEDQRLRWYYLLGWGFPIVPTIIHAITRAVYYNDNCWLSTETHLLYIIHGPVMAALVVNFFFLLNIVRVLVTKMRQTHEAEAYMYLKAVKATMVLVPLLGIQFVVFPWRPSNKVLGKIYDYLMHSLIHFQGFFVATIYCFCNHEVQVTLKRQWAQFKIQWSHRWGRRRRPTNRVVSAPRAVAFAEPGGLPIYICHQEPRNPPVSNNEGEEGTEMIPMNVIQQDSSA
# T3: rat amylin receptor (rat calcitonin receptor + rat RAMP 3) (rat, UniProt P32214 25-516; Q9JJ73 23-147)
# T3 construct: whole, on cells; Membranes of BHK tk'ts 13 cells transiently transfected with the rat calcitonin receptor and rat RAMP 3; also called rAmylin-R; rat amylin 3(a) receptor
# T3 sequence (looked up) 1: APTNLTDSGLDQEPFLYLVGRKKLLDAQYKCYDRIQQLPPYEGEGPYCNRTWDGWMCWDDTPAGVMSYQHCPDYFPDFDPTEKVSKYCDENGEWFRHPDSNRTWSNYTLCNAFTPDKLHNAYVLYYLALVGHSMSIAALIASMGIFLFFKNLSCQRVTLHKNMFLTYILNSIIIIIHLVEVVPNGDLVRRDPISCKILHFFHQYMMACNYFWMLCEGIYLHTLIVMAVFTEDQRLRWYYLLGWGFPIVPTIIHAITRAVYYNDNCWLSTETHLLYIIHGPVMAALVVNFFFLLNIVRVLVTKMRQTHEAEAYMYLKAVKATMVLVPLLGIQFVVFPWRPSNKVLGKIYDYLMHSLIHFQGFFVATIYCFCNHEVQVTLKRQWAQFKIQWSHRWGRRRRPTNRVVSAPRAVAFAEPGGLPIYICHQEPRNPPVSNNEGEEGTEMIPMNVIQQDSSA
# T3 sequence (looked up) 2: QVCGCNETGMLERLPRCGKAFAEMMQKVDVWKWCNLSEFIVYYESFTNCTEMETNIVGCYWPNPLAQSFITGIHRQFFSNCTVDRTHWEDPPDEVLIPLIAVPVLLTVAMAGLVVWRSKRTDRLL
# Assays:
# [1] = target: T1, human calcitonin receptor; experiment: IC50 at hCTR divided by IC50 at hAmylin-R (reference)
# Summary of the method: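 Membranes (35 ng/μL final) + SPA beads, 50 mM Hepes pH 7.4 buffer with 1 mM CaCl2, 5 mM MgCl₂, 0.1% OA, 0.02% Tween20; 120 min, 25° C, shaking; centrifuged, counted; IC₅₀ by one-site binding competition.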
# rat calcitonin receptor [2] = target: T2, rat calcitonin receptor; experiment: IC50 at rCTR divided by IC50 at rAmylin-R (reference)
# rat calcitonin receptor [3] = target: T2, rat calcitonin receptor; experiment: SPA competition vs 125I-calcitonin, membranes with rat CTR (Assay VIII)
# [4] = target: T3, rat amylin receptor (rat calcitonin …); experiment: SPA competition vs 125I-rat amylin, membranes with rat CTR + rat RAMP3 (Assay VI)
Ratio hCT/hAmylin binding [1],Ratio rCT/rAmylin binding (rat calcitonin receptor [2]),IC50 (rat calcitonin receptor [3]),IC50 [4],Binder
34.7,69.1,7.6 nM,0.11 nM,"K([AEEA-C20 diacid])CNTATCATQRLANFLRHSSPNFGAIPSSTNVGSNTY-NH2 (disulfide 2-7; N-terminus assumed; SMILES CC[C@H](C)[C@H](NC(=O)[C@H](C)NC(=O)CNC(=O)[C@H](Cc1ccccc1)NC(=O)[C@H](CC(N)=O)NC(=O)[C@@H]1CCCN1C(=O)[C@H](CO)NC(=O)[C@H](CO)NC(=O)[C@H](Cc1c[nH]cn1)NC(=O)[C@H](CCCNC(=N)N)NC(=O)[C@H](CC(C)C)NC(=O)[C@H](Cc1ccccc1)NC(=O)[C@H](CC(N)=O)NC(=O)[C@H](C)NC(=O)[C@H](CC(C)C)NC(=O)[C@H](CCCNC(=N)N)NC(=O)[C@H](CCC(N)=O)NC(=O)[C@@H](NC(=O)[C@H](C)NC(=O)[C@@H]1CSSC[C@H](NC(=O)[C@@H](N)CCCCNC(=O)COCCOCCNC(=O)CCCCCCCCCCCCCCCCCCC(=O)O)C(=O)N[C@@H](CC(N)=O)C(=O)N[C@@H]([C@@H](C)O)C(=O)N[C@@H](C)C(=O)N[C@@H]([C@@H](C)O)C(=O)N1)[C@@H](C)O)C(=O)N1CCC[C@H]1C(=O)N[C@@H](CO)C(=O)N[C@@H](CO)C(=O)N[C@H](C(=O)N[C@@H](CC(N)=O)C(=O)N[C@H](C(=O)NCC(=O)N[C@@H](CO)C(=O)N[C@@H](CC(N)=O)C(=O)N[C@H](C(=O)N[C@@H](Cc1ccc(O)cc1)C(N)=O)[C@@H](C)O)C(C)C)[C@@H](C)O, modifications are with respect to human amylin; also called compound 43) [N^ε1-[2-[2-[2-(19-carboxynonadecanoylamino)ethoxy]ethoxy]acetyl]-[Arg17,Pro21,Pro27]-h-amylin]"
17.3,16.7,16.7 nM,1 nM,"K([γGlu-γGlu-C20 diacid])CNTATCATQRLADFLRHSSNPFGAPLSSTNVGSDTY-NH2 (disulfide 2-7; N-terminus assumed; SMILES CC(C)C[C@H](NC(=O)[C@H](CCCNC(=N)N)NC(=O)[C@H](CCC(N)=O)NC(=O)[C@@H](NC(=O)[C@H](C)NC(=O)[C@@H]1CSSC[C@H](NC(=O)[C@@H](N)CCCCNC(=O)CC[C@H](NC(=O)CC[C@H](NC(=O)CCCCCCCCCCCCCCCCCCC(=O)O)C(=O)O)C(=O)O)C(=O)N[C@@H](CC(N)=O)C(=O)N[C@@H]([C@@H](C)O)C(=O)N[C@@H](C)C(=O)N[C@@H]([C@@H](C)O)C(=O)N1)[C@@H](C)O)C(=O)N[C@@H](C)C(=O)N[C@@H](CC(=O)O)C(=O)N[C@@H](Cc1ccccc1)C(=O)N[C@@H](CC(C)C)C(=O)N[C@@H](CCCNC(=N)N)C(=O)N[C@@H](Cc1c[nH]cn1)C(=O)N[C@@H](CO)C(=O)N[C@@H](CO)C(=O)N[C@@H](CC(N)=O)C(=O)N1CCC[C@H]1C(=O)N[C@@H](Cc1ccccc1)C(=O)NCC(=O)N[C@@H](C)C(=O)N1CCC[C@H]1C(=O)N[C@@H](CC(C)C)C(=O)N[C@@H](CO)C(=O)N[C@@H](CO)C(=O)N[C@H](C(=O)N[C@@H](CC(N)=O)C(=O)N[C@H](C(=O)NCC(=O)N[C@@H](CO)C(=O)N[C@@H](CC(=O)O)C(=O)N[C@H](C(=O)N[C@@H](Cc1ccc(O)cc1)C(N)=O)[C@@H](C)O)C(C)C)[C@@H](C)O, modifications are with respect to human amylin; also called compound 3)"
15.7,32.4,60.1 nM,1.86 nM,"{C20 diacid-γGlu}-KCNTATCATQRLAEFLRHSSPNFGAIPSSTNVGKNTY-NH2 (disulfide 2-7; SMILES CC[C@H](C)[C@H](NC(=O)[C@H](C)NC(=O)CNC(=O)[C@H](Cc1ccccc1)NC(=O)[C@H](CC(N)=O)NC(=O)[C@@H]1CCCN1C(=O)[C@H](CO)NC(=O)[C@H](CO)NC(=O)[C@H](Cc1c[nH]cn1)NC(=O)[C@H](CCCNC(=N)N)NC(=O)[C@H](CC(C)C)NC(=O)[C@H](Cc1ccccc1)NC(=O)[C@H](CCC(=O)O)NC(=O)[C@H](C)NC(=O)[C@H](CC(C)C)NC(=O)[C@H](CCCNC(=N)N)NC(=O)[C@H](CCC(N)=O)NC(=O)[C@@H](NC(=O)[C@H](C)NC(=O)[C@@H]1CSSC[C@H](NC(=O)[C@H](CCCCN)NC(=O)CC[C@H](NC(=O)CCCCCCCCCCCCCCCCCCC(=O)O)C(=O)O)C(=O)N[C@@H](CC(N)=O)C(=O)N[C@@H]([C@@H](C)O)C(=O)N[C@@H](C)C(=O)N[C@@H]([C@@H](C)O)C(=O)N1)[C@@H](C)O)C(=O)N1CCC[C@H]1C(=O)N[C@@H](CO)C(=O)N[C@@H](CO)C(=O)N[C@H](C(=O)N[C@@H](CC(N)=O)C(=O)N[C@H](C(=O)NCC(=O)N[C@@H](CCCCN)C(=O)N[C@@H](CC(N)=O)C(=O)N[C@H](C(=O)N[C@@H](Cc1ccc(O)cc1)C(N)=O)[C@@H](C)O)C(C)C)[C@@H](C)O, modifications are with respect to human amylin; also called compound 36)"
49.9,54,74.1 nM,1.37 nM,"K([AEEA-γGlu-C20 diacid])CNTATCATQRLANFLRHSSPNFGAIPSSTNVGSNTY-NH2 (disulfide 2-7; N-terminus assumed; SMILES CC[C@H](C)[C@H](NC(=O)[C@H](C)NC(=O)CNC(=O)[C@H](Cc1ccccc1)NC(=O)[C@H](CC(N)=O)NC(=O)[C@@H]1CCCN1C(=O)[C@H](CO)NC(=O)[C@H](CO)NC(=O)[C@H](Cc1c[nH]cn1)NC(=O)[C@H](CCCNC(=N)N)NC(=O)[C@H](CC(C)C)NC(=O)[C@H](Cc1ccccc1)NC(=O)[C@H](CC(N)=O)NC(=O)[C@H](C)NC(=O)[C@H](CC(C)C)NC(=O)[C@H](CCCNC(=N)N)NC(=O)[C@H](CCC(N)=O)NC(=O)[C@@H](NC(=O)[C@H](C)NC(=O)[C@@H]1CSSC[C@H](NC(=O)[C@@H](N)CCCCNC(=O)COCCOCCNC(=O)CC[C@H](NC(=O)CCCCCCCCCCCCCCCCCCC(=O)O)C(=O)O)C(=O)N[C@@H](CC(N)=O)C(=O)N[C@@H]([C@@H](C)O)C(=O)N[C@@H](C)C(=O)N[C@@H]([C@@H](C)O)C(=O)N1)[C@@H](C)O)C(=O)N1CCC[C@H]1C(=O)N[C@@H](CO)C(=O)N[C@@H](CO)C(=O)N[C@H](C(=O)N[C@@H](CC(N)=O)C(=O)N[C@H](C(=O)NCC(=O)N[C@@H](CO)C(=O)N[C@@H](CC(N)=O)C(=O)N[C@H](C(=O)N[C@@H](Cc1ccc(O)cc1)C(N)=O)[C@@H](C)O)C(C)C)[C@@H](C)O, modifications are with respect to human amylin; also called compound 41)"
17.7,53.3,19.6 nM,0.369 nM,"K([γGlu-C20 diacid])RCNTATCATQRLANFLRHSSPNFGAIPSSTNVGSHTY-NH2 (disulfide 3-8; N-terminus assumed; SMILES CC[C@H](C)[C@H](NC(=O)[C@H](C)NC(=O)CNC(=O)[C@H](Cc1ccccc1)NC(=O)[C@H](CC(N)=O)NC(=O)[C@@H]1CCCN1C(=O)[C@H](CO)NC(=O)[C@H](CO)NC(=O)[C@H](Cc1c[nH]cn1)NC(=O)[C@H](CCCNC(=N)N)NC(=O)[C@H](CC(C)C)NC(=O)[C@H](Cc1ccccc1)NC(=O)[C@H](CC(N)=O)NC(=O)[C@H](C)NC(=O)[C@H](CC(C)C)NC(=O)[C@H](CCCNC(=N)N)NC(=O)[C@H](CCC(N)=O)NC(=O)[C@@H](NC(=O)[C@H](C)NC(=O)[C@@H]1CSSC[C@H](NC(=O)[C@H](CCCNC(=N)N)NC(=O)[C@@H](N)CCCCNC(=O)CC[C@H](NC(=O)CCCCCCCCCCCCCCCCCCC(=O)O)C(=O)O)C(=O)N[C@@H](CC(N)=O)C(=O)N[C@@H]([C@@H](C)O)C(=O)N[C@@H](C)C(=O)N[C@@H]([C@@H](C)O)C(=O)N1)[C@@H](C)O)C(=O)N1CCC[C@H]1C(=O)N[C@@H](CO)C(=O)N[C@@H](CO)C(=O)N[C@H](C(=O)N[C@@H](CC(N)=O)C(=O)N[C@H](C(=O)NCC(=O)N[C@@H](CO)C(=O)N[C@@H](Cc1c[nH]cn1)C(=O)N[C@H](C(=O)N[C@@H](Cc1ccc(O)cc1)C(N)=O)[C@@H](C)O)C(C)C)[C@@H](C)O, modifications are with respect to human amylin; also called compound 44)"
90,116,350 nM,3.01 nM,"KCNTATCATQRLANFLRHSSPNFGAIPSSTNVGSNTY (C20 diacid-gGlu-2xOEG on the alpha amino group of the N-terminal residue (Lys 1); disulfide bridge Cys2-Cys7; C-terminal amide, modifications are with respect to human amylin; also called compound 24)"
